# B1: Fab S8: human IgG1 anti-gp120 Fab from LTNP donor; light chain SEQ ID 2, heavy chain SEQ ID 4 (antibody, listed as Homo sapiens)
# heavy: LESGGGLVKPGGSLRLSCAASGFTFSSYAMHWVRQAPGKGLEWVAFIWFDGSNERYADSVKGRFTITRDNPKNTLYLQMNSLRVEDTAVYYCVRRGGSILTGFHLDYWGQGTLVTVSSASTKGPSVFPLAPSSKSTSGGTAALGCLVKDYFPEPVTVSWNSGALTSGVHTFPAVLQSSGLYSLSSVVTVPSSSLGTQTYICNVNHKPSNTKVDKRVEPKSCDKTS
# light: ELTQSPSSLSASVGDRVTITCRASQGIRDDLGWYQQKPGKAPKRLIYAASNLQSGVPSRFSGGGSGTEFTLTISSLQPEDFATYYCLQHNSYPLTFGGGTKVEIKRTVAAPSVFIFPPSDEQLKSGTASVVCLLNNFYPREAKVQWKVDNALQSGNSQESVTEQDSKDSTYSLSSTLTLSKADYEKHKVYACEVTHQGLSSPVTKSFNKGKVLIL
# modifications: S8 Heavy chain; Light chain
# B2: Fab S20: human IgG1 anti-gp120 Fab; light chain SEQ ID 2, heavy chain SEQ ID 8 (antibody, listed as Homo sapiens)
# heavy: LESGGGVVQPGRSLRLSCSASGFSFRDYAMHWVRQAPGKGLEWVAFIWFDGSNERYADSVKGRFTITRDNPKNTLYLQMNSLRVEDTAVYYCVRRGGSILTGFHLDYWGQGTLVTVSSASTKGPSVFPLAPSSKSTSGGTAALGCLVKDYFPEPVTVSWNSGALTSGVHTFPAVLQSSGLYSLSSVVTVPSSSLGTQTYICNVNHKPSNTKVDKRVEPKSCDKTS
# light: ELTQSPSSLSASVGDRVTITCRASQGIRDDLGWYQQKPGKAPKRLIYAASNLQSGVPSRFSGGGSGTEFTLTISSLQPEDFATYYCLQHNSYPLTFGGGTKVEIKRTVAAPSVFIFPPSDEQLKSGTASVVCLLNNFYPREAKVQWKVDNALQSGNSQESVTEQDSKDSTYSLSSTLTLSKADYEKHKVYACEVTHQGLSSPVTKSFNKGKVLIL
# modifications: S20 Heavy chain; Light chain
# B3: Fab S19: human IgG1 anti-gp120 Fab; light chain SEQ ID 2, heavy chain SEQ ID 6 (antibody, listed as Homo sapiens)
# heavy: LESGGGVVQPGRSLRLSCAASGFSFSSHGMHWVRQAPGKGLEWVAFIWFDGSNERYADSVKGRFTITRDNPKNTLYLQMNSLRVEDTAVYYCVRRGGSILTGFHLDYWGQGTLVTVSSASTKGPSVFPLAPSSKSTSGGTAALGCLVKDYFPEPVTVSWNSGALTSGVHTFPAVLQSSGLYSLSSVVTVPSSSLGTQTYICNVNHKPSNTKVDKRVEPKSCDKTS
# light: ELTQSPSSLSASVGDRVTITCRASQGIRDDLGWYQQKPGKAPKRLIYAASNLQSGVPSRFSGGGSGTEFTLTISSLQPEDFATYYCLQHNSYPLTFGGGTKVEIKRTVAAPSVFIFPPSDEQLKSGTASVVCLLNNFYPREAKVQWKVDNALQSGNSQESVTEQDSKDSTYSLSSTLTLSKADYEKHKVYACEVTHQGLSSPVTKSFNKGKVLIL
# modifications: S19 Heavy chain; Light chain
# Experiments:
# [1] = tested on: HIV-1 R5 (Bal); experiment: p24 quantification after PBMC infection, R5 strain; assay type: cell-based; conditions: p24 on day 7
# Procedure: (§1) Excess virus and Fab were removed by washing, and PBMC incubated in complete RPMI 1640 at 37° C. Every two days after infection, half the culture supernatant (500 μl) was removed and replaced with fresh medium containing rhIL-2 and Fabs at the above concentration. Cell-free supernatants were tested for HIV-1 p24 antigen on day 7 using a commercial ELISA test (Coulter, Miami, Fla.). The percentage of neutralisation was calculated as the ratio between p24 levels for test samples a lone or with Fabs. Irrelevant HmFab P1 (10 μg/ml) was used as a negative control.
# [2] = tested on: HIV-1 MN strain; experiment: Neutralisation plaque assay (NPA) in MT-4 cells; assay type: cell-based
# Procedure: A neutralisation plaque assay (NPA) was established in MT-4 cells (Harada, et al., 1985) with minor modifications (Sánchez, et al., 1993). Six-well plates (Costar, Calif.) were incubated with 1 ml of poly-L-lysine (50 μg/ml, Sigma) for 60 min at room temperature and washed three times in phosphate-buffered saline (PBS, pH 7). MT-4 cells (4×10^6/well) were added and incubated 2 h, after which unbound cells were removed. Neutralisation was performed with 100 plaque-forming units (pfu) of virus and five purified Fabs (S20, S19, S8, M02 and M025) at different concentrations. The virus-antibody mixture was incubated (37° C., 3 h), slowly added to the plates and adsorbed (37° C., 90 min), after which virus was removed and 2 ml of agarose medium (0.2% SeaPlaque agarose in complete RPMI medium) were added. Plates were incubated (37° C., 5% CO2 atmosphere), and 2 ml of agarose medium were added on day 3. Plaque production was counted with the naked eye on day 7. Neutralisation titer was calculated according to the formula % neutralisation=(1−p/n)×100, where p is the amount of virus produced in presence of the corresponding Fab, n is the mean amount of virus produced without Fab, measured by number of plaques in cultures.
# [3] = tested on: HIV-1 X4 (NL4-3); experiment: p24 quantification after PBMC infection, X4 strain; assay type: cell-based; conditions: NL4-3, PBMC, p24 on day 7
# Procedure: as §1
# [4] = tested on: HIV-1 MN; experiment: Infectivity reduction assay (IRA) in MT-2 cells, MN; assay type: cell-based; conditions: Fab 10 μg/ml
# Procedure: (§2) The infectivity reduction assay (IRA) was performed using in MT-2 cells. Virus titer of LAI, SF-2, MN and RF strains was determined in MT-2 cells and expressed as TCID50 (50% tissue culture infective doses), calculated by the Spearman-Karber formula. Five 10-fold virus dilutions were mixed with different concentrations of Fabs S20, S19, S8, M02 and M025 and incubated (37° C., 1 h, 5% CO2), then added to a 96-well microtiter plate containing 10^5 MT-2 cells/well. Fresh medium (100 μl) was added 4 days later. Cytopathic effect (CPE), characterised by the appearance of giant multinuclear cells, was quantified on day 7. Six replicate wells were made for each dilution. Neutralisation was calculated by the formula % neutralisation=(1−p/n)×100, where p is the mean titer in TCID50/ml of virus produced in cultures incubated with the correspondent mixture and n is the mean titer of virus produced in cultures incubated without Fabs. Each titer point is the mean of two individual experiments.
# [5] = tested on: donor virus isolate (LTNP HIV-1); experiment: IRA in PBMC with donor virus isolate; assay type: cell-based; conditions: Fab 25 μg/ml
# Procedure: PBMC obtained from the patient in 1996 were cocultured with HIV-1-seronegative PBMC which had been stimulated for 3 days with phytohemagglutinin (PHA). Coculture was maintained in medium with interleukin-2 (IL-2) for at least 40 days (37° C., 5% CO2). Fresh PBMC were added each week and p24 antigen production was monitored every 7 days. Supernatant was harvested and characterised by TCID50% on stimulated PBMC. Supernatant (1 ml) from the coculture (1.3×10^3 TCID50%) was inoculated in 10×10^6 PBMC. After incubation (1 h, 37° C.), cells were centrifugated and 10 ml of RPMI with […] were added. Virus was grown and harvested. This first-passage virus stock was used to perform the IRA in PBMC. […] Medium with IL-2 was changed twice a week. After 14 days, the p24 assay was performed and TCID50% calculated. Neutralisation titer was calculated according to the formula given above.
# [6] = tested on: HIV-1 SF-2; experiment: Infectivity reduction assay (IRA) in MT-2 cells, SF-2; assay type: cell-based; conditions: Fab 10 μg/ml, SF-2, MT-2 cells
# Procedure: as §2
# [7] = tested on: HIV-1 LAI strain; experiment: Infectivity reduction assay (IRA) in MT-2 cells, LAI; assay type: cell-based; conditions: Fab 10 μg/ml
# Procedure: as §2
# [8] = tested on: HIV-1 Bal; experiment: In vivo neutralisation of HIV-1 Bal infection in SCID-hu-PBMC mice; conditions: Fab 100 μg i.p. x3
# Description: (A) Neutralisation of the HIV-1 MN strain by IgM Fabs M02 and M025 and IgG Fabs S8, S19 and S20 determined by plaque assay (NPA) in MT-4 cells. […] SCID mice grafted with adult human PBMC (SCID-hu-PBMC) sensitive to HIV-1 infection were infected 2 weeks after reconstitution with cell-free HIV-1 Bal stocks containing 100 TCID50. […] Peritoneal cells were recovered after 15 days and co-cultured with PHA-activated PBMC from HIV-1-seronegative individuals. Co-cultures were monitored in ELISA for HIV-1 core antigen in supernatant at days 7 (left) and 14 (right), and were considered positive when p24 was >30 ng/ml.
# CB.17 SCID/SCID mice were bred and maintained under specific pathogen-free conditions in the Centro Nacional de Biotecnologia animal facility. Eight- to 10-week-old non-leaky phenotype mice were reconstituted by i.p. injection of 20×10^6 freshly isolated normal human PBMC. […] Mice were infected 2 weeks after PBMC reconstitution by i.p. injection of 0.5 ml of diluted cell-free HIV-1 Bal stocks containing 100 TCID50. Two weeks after viral challenge, mice were killed by cervical dislocation and peritoneal cells obtained by washing with ice cold PBS. […] Co-cultures were monitored by ELISA for HIV-1 core antigen in supernatant on days 7 and 14, and were considered positive when p24 was >30 ng/ml.
# [9] = tested on: HIV-1 RF; experiment: Infectivity reduction assay (IRA) in MT-2 cells, RF; assay type: cell-based; conditions: Fab 10 μg/ml
# Procedure: as §2
# [10] = target: gp120 III-B (Human immunodeficiency virus type 1 group M subtype B, UniProt P04578); conditions: donor serum 1/200, Fab 0.01-30 μg/ml
molecule,measurement,setting,value
B1,Fab concentration for 50% neutralisation,[1],less than 0.1 μg/ml
same,% neutralisation,[2]; Fab 10 μg/ml,100%
same,Fab concentration for 50% neutralisation,[3],less than 0.1 μg/ml
same,% neutralisation,[4],greater than 90%
same,% neutralisation,[5],32%
same,% neutralisation,[6],greater than 90%
same,neutralisation,[7],poorly neutralised
same,Fab-treated mice with undetectable p24,"[8]; co-culture day 7, 100 TCID50 HIV-1 Bal",100%
same,Fab-treated mice with undetectable p24,"[8]; co-culture day 14, 100 TCID50 HIV-1 Bal",seven of eight
same,% neutralisation,[9],greater than 90%
same,inhibition of gp120 binding of donor serum IgG,[10],inhibited
B2,% neutralisation,[2]; Fab 1 μg/ml,100%
B3,% neutralisation,[2]; Fab 20 μg/ml,92%

# From patent US20110059015A1, “VACCINE” (priority 2002, published 2011)
